Here are results for 3 molecules from patent publication US20230227568A1 (Pieris, published 2023).

By EC50 is commonly meant the concentration giving half of the maximal effect.

The target of assay [1] is T1, human 4-1BB on cells (human, UniProt Q07011 24-255).
T1 construct: whole, on cells; Stably transfected CHO cells (flow cytometry) and bought Jurkat reporter cells (bioassay); also called Flp-In-CHO::hu4-1BB; human 4-1BB-expressing CHO cells
Put plainly: flow cytometry, Flp-In-CHO::hu4-1BB cells. Here is the method: (§1) 5×10⁴ cells per well were incubated for 1 h in ice-cold PBS containing 5% fetal calf serum (PBS-FCS). A dilution series of the tested multimeric proteins (SEQ ID NOs: 38-44 and 46-55), the 4-1BB-targeting lipocalin mutein as included in the multimeric proteins (SEQ ID NO: 64) or the GPC3-targeting lipocalin SEQ ID NO: 90 were added to the cells and incubated for 1 h on ice. Cells were washed twice with PBS and then incubated with a rabbit anti-NGAL or a goat anti-human IgG labeled with fluorescent dye Alexa 488 for 30 min on ice. Human IgG4 isotype (SEQ ID NOs: 29 and 30) and lipocalin mutein SEQ ID NO: 8 were tested as a negative control. Cells were subsequently washed and analyzed using iQue Flow cytometer (Intellicyte Screener). Mean geometric fluorescent signals were plotted and fitted with Graphpad software using nonlinear regression (shared bottom, four parameters, variable slope).
(§2) Target-specific binding of hexavalent trimeric proteins to human 4-1BB-, OX40- or PD-L1-expressing cells was assessed by flow cytometry as described in Example 5, using CHO cells stably transfected with human 4-1BB, human OX40 or human PD-L1 (Flp-In system; Life Technologies).

The target in assay [2] is T2, human PD-L1 on CHO cells (human, UniProt Q9NZQ7 19-290).
T2 construct: whole, on cells; Stably transfected CHO cells; also called Flp-In-CHO::huPD-L1; human PD-L1-expressing CHO cells
T2 sequence (Q9NZQ7 19-290): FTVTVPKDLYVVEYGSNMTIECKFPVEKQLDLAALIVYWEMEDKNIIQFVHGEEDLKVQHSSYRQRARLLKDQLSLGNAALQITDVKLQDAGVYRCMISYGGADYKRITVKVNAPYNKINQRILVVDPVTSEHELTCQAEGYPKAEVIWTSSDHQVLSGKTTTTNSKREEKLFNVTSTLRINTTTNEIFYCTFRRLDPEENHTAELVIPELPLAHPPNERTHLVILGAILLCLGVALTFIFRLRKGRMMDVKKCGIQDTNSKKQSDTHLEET
The experiment in a line: flow cytometry, Flp-In-CHO::huPD-L1 cells. A general note: A flow cytometer gives signals particle by particle.

Another assay has as its target T3, hu4-1BB-Fc (R&D Systems) (human, UniProt Q07011 24-186).
T3 construct: Bought; also called human 4-1BB; not shown: human IgG Fc of the bought fusion
Put plainly: SPR, hu4-1BB-Fc captured.

Assay [3] has as its target T4, human GPC3 on HepG2 cells (human, UniProt P51654 25-554).
T4 construct: whole, on cells; Endogenous GPC3 of the tumor cell line; also called GPC3-positive tumor cell line HepG2; human GPC3-expressing HepG2 cells
Put plainly: flow cytometry on HepG2 cells (human GPC3), anti-NGAL detection, GeoMean BL1-H [Cont'd) C]. How it is done: GPC3-positive tumor cell line HepG2 was cultured in Dulbecco's Modified Eagle's Medium ([…], Pan Biotech) supplemented with 10% Fetal Calf Serum (Sigma-Aldrich) and in cell culture flasks according to manufacturer's instruction (37° C., 5% CO₂ atmosphere).
as §1

Assay [4] deals with T1, human 4-1BB on cells. The experiment in a line: flow cytometry on Flp-In-CHO::huCD137 (human 4-1BB) cells, anti-NGAL detection, GeoMean BL1-H. Here is the method:
(§3) CHO cells were stably transfected with human 4-1BB, cynomolgus 4-1BB, or a mock control using the Flp-In system (Life Technologies) according to the manufacturer's instructions. Transfected CHO cells were maintained in Ham's F12 medium (Life Technologies) supplemented with 10% Fetal Calf Serum (Biochrom) and 500 μg/ml Hygromycin B (Roth). Cells were cultured in cell culture flasks according to manufacturer's instruction (37° C., 5% CO₂ atmosphere).
as §1

For assay [5], the target named is T5, recombinant hu4-1BB-His (human 4-1BB with a C-terminal polyhistidine tag, R&D Systems) (human, UniProt Q07011 24-186).
T5 construct: Bought; not shown: C-terminal polyhistidine tag
Put plainly: ELISA, hu4-1BB-His coated on the plate, bound agent detected with anti-NGAL-HRP. How it is done:
C-terminal His-tagged 4-1BB or GPC3 was coated on a microtiter plate, and the tested agents were titrated starting with the highest concentration of 100 nM. Bound agents under study were detected via anti-NGAL-HRP. The data was fit with a 1:1 binding model with the EC₅₀ value and the maximum signal as free parameters, and a slope that was fixed to one.
Recombinant hu4-1BB-His (human 4-1BB with a C-terminal polyhistidine tag, R&D Systems) at the concentration of 1 μg/mL in PBS was coated overnight on microtiter plates at 4° C. After washing with PBS-0.05% T (PBS supplemented with 0.05% (v/v) Tween 20), the plates were blocked with 2% BSA (w/v) in PBS-0.1% T (PBS supplemented with 0.1% (v/v) Tween 20) for 1 h at room temperature. After washing with 100 μL PBS-0.05% T five times, exemplary multimeric proteins (SEQ ID NOs: 38-44 and 46-53) or 4-1BB-specific lipocalin mutein as included in the multimeric protein (SEQ ID NO: 64) at different concentrations, ranging from 100 to 0.002 nM, were added to the wells and incubated for 1 h at room temperature, followed by another wash step. Bound molecules under study were detected by incubation with 1:1000 diluted anti-NGAL-HRP in PBS-0.1% T-2% BSA. After an additional wash step, fluorogenic HRP substrate (QuantaBlu, Thermo) was added to each well and the fluorescence intensity was detected using a fluorescence microplate reader.
In general terms: An ELISA detects its analyte on a solid surface through an enzyme-linked reagent.

In assay [6] the target is T2, human PD-L1 on CHO cells. The experiment in a line: flow cytometry on CHO cells stably transfected with human PD-L1, anti-NGAL detection, GeoMean BL1-H. Here is the method:
as §1, §2

Assay [7] has as its target T6, cynomolgus 4-1BB on CHO cells (cynomolgus, UniProt A9YYE7 24-254).
T6 construct: also called Flp-In-CHO::cyno4-1BB; cynomolgus 4-1BB-expressing CHO cells
Put plainly: flow cytometry on Flp-In-CHO::cyCD137 (cynomolgus 4-1BB) cells, anti-NGAL detection, GeoMean BL1-H [Cont'd) B]. How it is done:
as §3, §1

T1 sequence (Q07011 24-255): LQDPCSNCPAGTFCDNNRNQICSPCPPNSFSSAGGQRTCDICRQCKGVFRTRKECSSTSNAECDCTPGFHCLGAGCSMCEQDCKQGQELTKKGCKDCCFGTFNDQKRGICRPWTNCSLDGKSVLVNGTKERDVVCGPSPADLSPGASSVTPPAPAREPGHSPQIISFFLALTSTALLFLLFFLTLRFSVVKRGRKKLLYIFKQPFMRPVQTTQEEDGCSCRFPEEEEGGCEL
T4 sequence (P51654 25-554 limits assumed): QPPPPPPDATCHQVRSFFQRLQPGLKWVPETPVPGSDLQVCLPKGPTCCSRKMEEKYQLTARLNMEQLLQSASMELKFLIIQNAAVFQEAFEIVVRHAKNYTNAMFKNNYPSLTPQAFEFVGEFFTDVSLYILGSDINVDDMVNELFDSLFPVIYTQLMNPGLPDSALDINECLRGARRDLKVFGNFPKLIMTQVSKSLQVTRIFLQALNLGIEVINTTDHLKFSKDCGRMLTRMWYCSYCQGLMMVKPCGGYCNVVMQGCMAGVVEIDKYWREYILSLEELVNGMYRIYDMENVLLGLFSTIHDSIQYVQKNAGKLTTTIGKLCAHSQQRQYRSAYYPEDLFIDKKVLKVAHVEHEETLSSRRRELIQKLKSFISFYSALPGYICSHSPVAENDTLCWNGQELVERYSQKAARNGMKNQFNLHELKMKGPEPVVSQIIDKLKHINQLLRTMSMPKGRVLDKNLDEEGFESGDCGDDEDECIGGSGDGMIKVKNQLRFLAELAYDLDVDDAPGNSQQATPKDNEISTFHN
T6 sequence (A9YYE7 entry or part of it limits assumed): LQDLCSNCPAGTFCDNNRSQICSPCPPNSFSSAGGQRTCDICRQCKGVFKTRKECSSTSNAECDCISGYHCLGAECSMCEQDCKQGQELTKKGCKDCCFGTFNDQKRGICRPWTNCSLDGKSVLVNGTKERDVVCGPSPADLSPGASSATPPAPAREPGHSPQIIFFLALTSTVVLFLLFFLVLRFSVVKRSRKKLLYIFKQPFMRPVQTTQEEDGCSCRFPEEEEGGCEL

B1: bispecific hexavalent trimeric protein SEQ ID NO: 167 (designed binder)
chain: QVQLQESGPGLVKPSETLSITCTVSGFSLSNYDISWIRQPPGKGLEWLGVIWTGGATNYNPALKSRLTISRDNSKNQVSLKMSSVTAADTAVYYCVRDSNYRYDEPFTYWGQGTLVTVSSGGGGSGGGGSGGGGSGGGGSEIVLTQSPDTLSVTPKEKVTLTCRASQSIGTNIHWFQQKPGQSPKLLIKYASESISGVPSRFSGSGSGTDFTLTINSVEAEDAATYYCQQSNSWPYTFGQGTKLEIKGGGGSGGGGSGGGGSGVRLWATRQAMLGQVHEVPEGWLIFVAEQEELYVRVQNGFRKVQLEARTPLGGGGSGGGGSGGGGSQDSTSDLIPAPPLSKVPLQQNFQDNQFHGKWYVVGQAGNIRLREDKDPIKMMATIYELKEDKSYDVTMVKFDDKKCMYDIWTFVPGSQPGEFTLGKIKSFPGHTSSLVRVVSTNYNQHAMVFFKFVFQNREEFYITLYGRTKELTSELKENFIRFSKSLGLPENHIVFPVPIDQCIDGGGSGGAPEQKLISEEDLGSHHHHHHHHHH
Take B1: the EC50 with human 4-1BB on cells [1] stood at 4.71 nM; with human PD-L1 on CHO cells [2] it was 1.23 nM.

B2: multimeric protein SEQ ID NO: 45 (designed binder)
chain: GVRLWATRQAMLGQVHEVPEGWLIFVAEQEELYVRVQNGFRKVQLEARTPLGGGGSGGGGSGGGGSGGGGSGGGGSQDSTSDLIPAPPLSKVPLQQNFQDNQFHGKWYVVGQAGNIRLREDKDPIKMMATIYELKEDKSYDVTMVKFDDKKCMYDIWTFVPGSQPGEFTLGKIKSFPGHTSSLVRVVSTNYNQHAMVFFKFVFQNREEFYITLYGRTKELTSELKENFIRFSKSLGLPENHIVFPVPIDQCIDGGGSGGAPEQKLISEEDLGSHHHHHHHHHH
As for B2, the binding result with hu4-1BB-Fc (R&D Systems) was “binds”.

B3: SEQ ID NO: 8 (designed binder)
lipocalin mutein: QDSTSDLIPAPPLSKVPLQQNFQDNQFHGKWYVVGLAGNAILREDKDPQKMYATIYELKEDKSYNVTSVLFRKKKCDYWIRTFVPGSQPGEFTLGNIKSYPGLTSYLVRVVSTNYNQHAMVFFKKVSQNREYFKITLYGRTKELTSELKENFIRFSKSLGLPENHIVFPVPIDQCIDG
For B3, the binding result is listed as “no binding (tested: about 200 nM)” in assay [3]; “no binding (tested: about 200 nM)” with human 4-1BB on cells [4]; “no binding (tested: 100 nM)” in assay [5]; “no binding (tested: about 7 nM)” in the assay with human PD-L1 on CHO cells [6]; “no binding (tested: about 200 nM)” in assay [7].
